Assay results taken from US20180258158A1 (Bristol-Myers Squibb, published 2018).

Key:
[1] = biological target: T1, human serum albumin (HSA), full length (human, UniProt P02768 25-609); assay: SPR, immobilized HSA, 500 nM Adnectin, 25 C
T1 construct: mature; Immobilized on CM5 chip (SPR) or coated on plates (ELISA)
Procedure: (§1) Measurements were conducted by SPR and ELISA. SPR was conducted as follows. Full length HSA or mouse albumin was immobilized on a Biacore T series CM5 chip at 15 ug/mL in 10 mM acetate buffer (pH 5.0) buffer using standard NHS/EDC coupling, to a surface density of approximately 1000-1100 RU. For off-rate measurements at 25° C., PKE Adnectins were applied as analytes at 500 nM in HBS-P+(0.01 M HEPES pH 7.4, 0.15 M NaCl, 0.005% v/v Surfactant P20) running buffer at a flow rate of 20ul/min for 120 s over the immobilized albumins, followed by 800 s for dissociation. […] Regeneration of the chip surface between cycles was accomplished with two 30 second pulses of 10 mM Glycine, pH 2.0. Kinetic traces of reference-subtracted sensorgrams were fit to a 1:1 binding model for affinity using the Biaevaluation software. Only the dissociation phase was fit for determination of off-rates.

[2] = biological target: T2, mouse serum albumin (MSA), full length (mouse, UniProt P07724 25-608); assay: SPR kinetics, immobilized albumin, 1:1 fit, 37 C
T2 construct: mature; Immobilized on CM5 chip (SPR) or coated on plates (ELISA); also called mouse albumin; murine serum albumin
Procedure: as §1, with “The SPR” for “Measurements were conducted by SPR and ELISA. SPR”, “length human, mouse, rat and cynomolgus monkey serum” for “length HSA or mouse”, “albumin were” for “albumin was”

[3] = biological target: T3, cynomolgus monkey serum albumin (cynoSA), full length (cynomolgus monkey, UniProt A2V9Z4 25-608); assay: SPR kinetics, immobilized albumin, 1:1 fit, 37 C
T3 construct: mature; Immobilized on CM5 chip (SPR); the cynoSA experiment used a different Biacore chip; also called CySA
Procedure: as §1, with “The SPR” for “Measurements were conducted by SPR and ELISA. SPR”, “length human, mouse, rat and cynomolgus monkey serum” for “length HSA or mouse”, “albumin were” for “albumin was”

[4] = biological target: T4, rat serum albumin (rat SA), full length (rat, UniProt P02770 25-608); assay: SPR kinetics, immobilized albumin, 1:1 fit, 37 C
T4 construct: mature; Immobilized on CM5 chip (SPR); also called RSA
Procedure: as §1, with “The SPR” for “Measurements were conducted by SPR and ELISA. SPR”, “length human, mouse, rat and cynomolgus monkey serum” for “length HSA or mouse”, “albumin were” for “albumin was”

[5] = biological target: T1, human serum albumin (HSA), full length; assay: SPR kinetics, immobilized albumin, 1:1 fit, 37 C
Procedure: as §1, with “The SPR” for “Measurements were conducted by SPR and ELISA. SPR”, “length human, mouse, rat and cynomolgus monkey serum” for “length HSA or mouse”, “albumin were” for “albumin was”

[6] = biological target: T1, human serum albumin (HSA), full length; assay: not stated; upper end of the range 3-6 nM
[7] = biological target: T4, rat serum albumin (rat SA), full length; assay: SPR kinetics (Biacore, CM5): albumin immobilised, Adnectin concentration series as analyte, 37 C, 1:1 binding fit; curve Fc=4-1 [panel Rat SA]
Procedure: as §1, with “The SPR” for “Measurements were conducted by SPR and ELISA. SPR”, “length human, mouse, rat and cynomolgus monkey serum” for “length HSA or mouse”, “albumin were” for “albumin was”

[8] = biological target: T2, mouse serum albumin (MSA), full length; assay: SPR kinetics (Biacore, CM5): albumin immobilised, Adnectin concentration series as analyte, 37 C, 1:1 binding fit; curve Fc=3-1 [panel MSA]
Procedure: as §1, with “The SPR” for “Measurements were conducted by SPR and ELISA. SPR”, “length human, mouse, rat and cynomolgus monkey serum” for “length HSA or mouse”, “albumin were” for “albumin was”

[9] = biological target: T2, mouse serum albumin (MSA), full length; assay: SPR, immobilized MSA, 500 nM Adnectin, 25 C
Procedure: as §1

[10] = biological target: T3, cynomolgus monkey serum albumin …; assay: SPR kinetics (Biacore, CM5): ligand '15ug/ml CynoSA in Acetate 5.0' immobilised, Adnectin concentration series as analyte, 37 C, 1:1 binding fit; curve Fc=2-1 [panel Cyno SA]
Procedure: as §1, with “The SPR” for “Measurements were conducted by SPR and ELISA. SPR”, “length human, mouse, rat and cynomolgus monkey serum” for “length HSA or mouse”, “albumin were” for “albumin was”

[11] = biological target: T1, human serum albumin (HSA), full length; assay: SPR off-rate, immobilized HSA, 500 nM Adnectin, 25 C
Procedure: as §1

[12] = biological target: T1, human serum albumin (HSA), full length; assay: not stated; lower end of the range 3-6 nM
[13] = biological target: T1, human serum albumin (HSA), full length; assay: SPR kinetics (Biacore, CM5): albumin immobilised, Adnectin concentration series as analyte, 37 C, 1:1 binding fit; curve Fc=2-1 [panel HSA]
Procedure: as §1, with “The SPR” for “Measurements were conducted by SPR and ELISA. SPR”, “length human, mouse, rat and cynomolgus monkey serum” for “length HSA or mouse”, “albumin were” for “albumin was”

[14] = biological target: T2, mouse serum albumin (MSA), full length; assay: SPR off-rate, immobilized MSA, 500 nM Adnectin, 25 C
Procedure: as §1

T1 sequence (P02768 25-609): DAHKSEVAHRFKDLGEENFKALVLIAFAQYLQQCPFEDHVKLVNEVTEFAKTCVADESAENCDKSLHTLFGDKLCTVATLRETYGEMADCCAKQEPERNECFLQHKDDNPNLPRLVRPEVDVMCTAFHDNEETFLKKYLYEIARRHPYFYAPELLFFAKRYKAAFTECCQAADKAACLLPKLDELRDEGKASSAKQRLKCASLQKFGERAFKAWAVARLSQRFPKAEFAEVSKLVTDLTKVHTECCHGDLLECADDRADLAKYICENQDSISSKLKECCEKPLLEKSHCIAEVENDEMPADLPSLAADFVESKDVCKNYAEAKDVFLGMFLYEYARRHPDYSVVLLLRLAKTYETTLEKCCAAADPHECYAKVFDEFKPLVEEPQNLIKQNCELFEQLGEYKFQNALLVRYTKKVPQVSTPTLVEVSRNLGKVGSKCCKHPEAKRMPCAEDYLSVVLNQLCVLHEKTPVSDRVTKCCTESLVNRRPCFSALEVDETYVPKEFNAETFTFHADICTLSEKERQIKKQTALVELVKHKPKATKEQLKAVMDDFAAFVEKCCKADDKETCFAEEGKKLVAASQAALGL
T4 sequence (P02770 25-608): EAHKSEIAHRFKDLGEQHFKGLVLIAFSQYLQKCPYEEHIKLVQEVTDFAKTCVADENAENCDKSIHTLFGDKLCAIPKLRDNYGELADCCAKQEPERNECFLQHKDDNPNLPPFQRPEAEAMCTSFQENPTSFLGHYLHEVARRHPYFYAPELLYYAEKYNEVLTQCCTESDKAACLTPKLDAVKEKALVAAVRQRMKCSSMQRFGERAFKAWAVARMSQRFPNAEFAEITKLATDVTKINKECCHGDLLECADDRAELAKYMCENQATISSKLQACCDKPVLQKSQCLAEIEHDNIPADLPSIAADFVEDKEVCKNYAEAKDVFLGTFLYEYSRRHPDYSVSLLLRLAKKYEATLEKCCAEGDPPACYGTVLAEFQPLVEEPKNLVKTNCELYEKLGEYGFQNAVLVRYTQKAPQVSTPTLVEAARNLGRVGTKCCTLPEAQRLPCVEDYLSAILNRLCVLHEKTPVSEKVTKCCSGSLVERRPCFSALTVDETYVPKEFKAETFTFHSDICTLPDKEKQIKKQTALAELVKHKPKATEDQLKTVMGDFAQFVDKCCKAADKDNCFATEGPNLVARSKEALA
T3 sequence (A2V9Z4 25-608): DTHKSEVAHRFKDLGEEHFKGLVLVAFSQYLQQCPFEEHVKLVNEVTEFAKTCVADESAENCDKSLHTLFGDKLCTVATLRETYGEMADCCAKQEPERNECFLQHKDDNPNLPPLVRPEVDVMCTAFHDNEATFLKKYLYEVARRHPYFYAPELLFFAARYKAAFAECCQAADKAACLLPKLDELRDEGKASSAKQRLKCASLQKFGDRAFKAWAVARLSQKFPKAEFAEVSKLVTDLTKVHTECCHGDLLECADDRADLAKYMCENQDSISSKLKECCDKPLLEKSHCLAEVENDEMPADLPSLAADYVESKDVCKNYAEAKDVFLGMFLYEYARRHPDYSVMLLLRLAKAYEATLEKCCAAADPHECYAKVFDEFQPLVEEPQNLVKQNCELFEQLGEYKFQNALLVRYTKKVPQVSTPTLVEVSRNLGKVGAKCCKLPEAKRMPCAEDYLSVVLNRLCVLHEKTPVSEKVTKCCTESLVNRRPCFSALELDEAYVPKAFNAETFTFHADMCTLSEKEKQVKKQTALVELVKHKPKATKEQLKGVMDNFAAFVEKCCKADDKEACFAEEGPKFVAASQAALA

B1: ADX_7016_A01 (parent PKE2 Adnectin) (designed binder)
chain: MGVSDVPRDLEVVAATPTSLLISWDAPAVTVRYYRITYGREVQKYSDLGPLYIYQEFTVPGSKSTATISGLKPGVDYTITVYAVTGSGESPASSKPISINYRTEIDKPSQHHHHHH
notes: N-terminal Met may be cleaved; also called 2629_E06; ADX_2629_E06
B1 was tested. Which “HSA Binding (RU)” value [1] did it give?
Its value is 54 RU.

What about the Kd [2] of the same binder?
Its Kd is 2.8 nM.

And the koff [2]?
The koff was 0.000668 s⁻¹.

What about the kon [2] of the same binder?
The kon was 237000 M⁻¹ s⁻¹.

What about the Kd [3] of the same binder?
The Kd was 4.4 nM.

What about the koff [3] of the same binder?
The koff was 0.000391 s⁻¹.

And the kon [3]?
Its kon is 89400 M⁻¹ s⁻¹.

What about the Kd [4] of the same binder?
The Kd was 8 nM.

And the koff [4]?
Its koff is 0.00143 s⁻¹.

And the kon [4]?
Its kon is 180000 M⁻¹ s⁻¹.

And the Kd [5]?
The Kd was 6.2 nM.

What about the koff [5] of the same binder?
The koff was 0.000378 s⁻¹.

And the kon [5]?
Its kon is 61200 M⁻¹ s⁻¹.

And the Kd [6]?
Its Kd is 3 to 6 nM.

What about the koff [7] of the same binder?
Its koff is 0.00143 s⁻¹.

What about the kon [7] of the same binder?
The kon was 180000 M⁻¹ s⁻¹.

And the koff [8]?
Its koff is 0.000668 s⁻¹.

What about the kon [8] of the same binder?
Its kon is 237000 M⁻¹ s⁻¹.

What about the “MSA Binding (RU)” value [9] of the same binder?
The value was 95 RU.

What about the Kd [10] of the same binder?
Its Kd is 4.38 nM.

And the koff [10]?
Its koff is 0.000391 s⁻¹.

What about the kon [10] of the same binder?
The kon was 89400 M⁻¹ s⁻¹.

And the koff [11]?
The koff was 0.000269 s⁻¹.

And the Kd [12]?
Its Kd is 3 to 6 nM.

And the koff [13]?
The koff was 0.000378 s⁻¹.

What about the kon [13] of the same binder?
Its kon is 61200 M⁻¹ s⁻¹.

And the koff [14]?
The koff was 0.000428 s⁻¹.
